Each block holds one binder with its values, some of them ahead of it.
Molecular target: T1, His-Flag-Smurf1 (UniProt Q9HCE7-2 1-731)
T1 construct: Smurf1; printed length 731 (HECT domain residues 374–731, catalytic C699); also called SMAD Specific E3 Ubiquitin Protein Ligase 1; source: E. coli, purified
Test: pull-down; GST pull-down: GST fusion and His-tagged partner both purified from E. coli; 4 °C overnight, washed with PBS
Details: both partners purified

T1 sequence (Q9HCE7 other isoform, or with tags, fused parts or gaps): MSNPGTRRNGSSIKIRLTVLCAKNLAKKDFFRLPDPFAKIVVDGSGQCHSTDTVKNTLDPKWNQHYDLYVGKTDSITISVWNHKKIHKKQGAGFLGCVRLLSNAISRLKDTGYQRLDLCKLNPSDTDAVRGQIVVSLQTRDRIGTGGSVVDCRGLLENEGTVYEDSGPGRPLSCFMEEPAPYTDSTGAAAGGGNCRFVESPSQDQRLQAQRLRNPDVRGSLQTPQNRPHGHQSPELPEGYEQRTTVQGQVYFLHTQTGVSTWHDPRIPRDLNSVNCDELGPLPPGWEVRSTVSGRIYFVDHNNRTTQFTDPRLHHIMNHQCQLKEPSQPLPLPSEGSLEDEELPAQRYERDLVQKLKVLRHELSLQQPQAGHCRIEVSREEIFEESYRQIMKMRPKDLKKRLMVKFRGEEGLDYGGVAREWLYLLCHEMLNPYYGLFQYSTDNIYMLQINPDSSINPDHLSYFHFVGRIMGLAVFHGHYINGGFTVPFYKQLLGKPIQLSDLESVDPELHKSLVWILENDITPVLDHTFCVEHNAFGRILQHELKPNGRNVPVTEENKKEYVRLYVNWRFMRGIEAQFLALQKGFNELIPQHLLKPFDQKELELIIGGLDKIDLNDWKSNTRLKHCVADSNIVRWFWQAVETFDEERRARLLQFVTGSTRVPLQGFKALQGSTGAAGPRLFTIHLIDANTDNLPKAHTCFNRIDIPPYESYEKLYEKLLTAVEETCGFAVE

binding result: binds
B1: GST-TFEB (natural protein, UniProt P19484 1-476, looked up)
chain: MASRIGLRMQLMREQAQQEEQRERMQQQAVMHYMQQQQQQQQQQLGGPPTPAINTPVHFQSPPPVPGEVLKVQSYLENPTSYHLQQSQHQKVREYLSETYGNKFAAHISPAQGSPKPPPAASPGVRAGHVLSSSAGNSAPNSPMAMLHIGSNPERELDDVIDNIMRLDDVLGYINPEMQMPNTLPLSSSHLNVYSSDPQVTASLVGVTSSSCPADLTQKRELTDAESRALAKERQKKDNHNLIERRRRFNINDRIKELGMLIPKANDLDVRWNKGTILKASVDYIRRMQKDLQKSRELENHSRRLEMTNKQLWLRIQELEMQARVHGLPTTSPSGMNMAELAQQVVKQELPSEEGPGEALMLGAEVPDPEPLPALPPQAPLPLPTQPPSPFHHLDFSHSLSFGGREDEGPPGYPEPLAPGHGSPFPSLSKKDLDLMLLDDSLLPLASDPLLSTMSPEASKASSRRSSFSMEEGDVL
notes: TFEB, transcription factor EB; source: E. coli, purified

binding result: binds
B2: GST-FLCN (natural protein, UniProt Q8NFG4 1-579, looked up)
chain: MNAIVALCHFCELHGPRTLFCTEVLHAPLPQGDGNEDSPGQGEQAEEEEGGIQMNSRMRAHSPAEGASVESSSPGPKKSDMCEGCRSLAAGHPGYISHDKETSIKYVSHQHPSHPQLFSIVRQACVRSLSCEVCPGREGPIFFGDEQHGFVFSHTFFIKDSLARGFQRWYSIITIMMDRIYLINSWPFLLGKVRGIIDELQGKALKVFEAEQFGCPQRAQRMNTAFTPFLHQRNGNAARSLTSLTSDDNLWACLHTSFAWLLKACGSRLTEKLLEGAPTEDTLVQMEKLADLEEESESWDNSEAEEEEKAPVLPESTEGRELTQGPAESSSLSGCGSWQPRKLPVFKSLRHMRQVLGAPSFRMLAWHVLMGNQVIWKSRDVDLVQSAFEVLRTMLPVGCVRIIPYSSQYEEAYRCNFLGLSPHVQIPPHVLSSEFAVIVEVHAAARSTLHPVGCEDDQSLSKYEFVVTSGSPVAADRVGPTILNKIEAALTNQNLSVDVVDQCLVCLKEEWMNKVKVLFKFTKVDSRPKEDTQKLLSILGASEEDNVKLLKFWMTGLSKTYKSHLMSTVRSPTASESRN
notes: FLCN, folliculin; source: E. coli, purified

Source: publication PMC12561182, “Gal3‐CaN‐Smurf1 Complex Sequestrates FLCN‐FNIPs to Facilitate TFEB Activation in Response to Endomembrane Damage” (Advanced Science, 2025)
